Measurements published in FireProtDB (doi:10.1074/jbc.m112.408906).

B1: Myocilin, Q99972 (parent)
chain: MRFFCARCCSFGPEMPAVQLLLLACLVWDVGARTAQLRKANDQSGRCQYTFSVASPNESSCPEQSQAMSVIHNLQRDSSTQRLDLEATKARLSSLESLLHQLTLDQAARPQETQEGLQRELGTLRRERDQLETQTRELETAYSNLLRDKSVLEEEKKRLRQENENLARRLESSSQEVARLRRGQCPQTRDTARAVPPGSREVSTWNLDTLAFQELKSELTEVPASRILKESPSGYLRSGEGDTGCGELVWVGEPLTLRTAETITGKYGVWMRDPKPTYPYTQETTWRIDTVGTDVRQVFEYDLISQFMQGYPSKVHILPRPLESTGAVVYSGSLYFQGAESRTVIRYELNTETVKAEKEIPGAGYHGQFPYSWGGYTDIDLAVDEAGLWVIYSTDEAKGAIVLSKLNPENLELEQTWETNIRKQSVANAFIICGTLYTVSSYTSADATVNFAYDTGTGISKTLTIPFKNRYKYSSMIDYNPLEKKLFAWDNLNMVTYDIKLSKM

Variants of: B1
Details: Homo sapiens, pH 6, Thermal, CD, Sodium acetate 10mM, reversible: no, structure 4WXQ, whole UniProt chain shown

Which Tm (CaCl2 1mM) does the source give for MRFFCARCCSFGPEMPAVQLLLLACLVWDVGARTAQLRKANDQSGRCQYTFSVASPNESSCPEQSQAMSVIHNLQRDSSTQRLDLEATKARLSSLESLLHQLTLDQAARPQETQEGLQRELGTLRRERDQLETQTRELETAYSNLLRDKSVLEEEKKRLRQENENLARRLESSSQEVARLRRGQCPQTRDTARAVPPGSREVSTWNLDTLAFQELKSELTEVPASRILKESPSGYLRSGEGDTGCGELVWVGEPLTLRTAETITGKYGVWMRDPKPTYPYTQETTWRIDTVGTDVRQVFEYDLISQFMQGYPSKVHILPRPLESTGAVVYSGSLYFQGAESRTVIRYELNTETVKAEKEIPGAGYHGQFPYSWGGYMDIDLAVDEAGLWVIYSTDEAKGAIVLSKLNPENLELEQTWETNIRKQSVANAFIICGTLYTVSSYTSADATVNFAYDTGTGISKTLTIPFKNRYKYSSMIDYNPLEKKLFAWDNLNMVTYDIKLSKM [T377M] here?
The Tm was 44.3 °C.

What about the “change of melting temperature, mutant - wild type (higher = more stable)” value (CaCl2 1mM) of the same variant?
The value was -8.7 °C.

And the Tm (CaCl2 10mM)?
Its Tm is 50.6 °C.

What about the “change of melting temperature, mutant - wild type (higher = more stable)” value (CaCl2 10mM) of the same variant?
Its value is -9 °C.

Which results are given for MRFFCARCCSFGPEMPAVQLLLLACLVWDVGARTAQLRKANDQSGRCQYTFSVASPNESSCPEQSQAMSVIHNLQRDSSTQRLDLEATKARLSSLESLLHQLTLDQAARPQETQEGLQRELGTLRRERDQLETQTRELETAYSNLLRDKSVLEEEKKRLRQENENLARRLESSSQEVARLRRGQCPQTRDTARAVPPGSREVSTWNLDTLAFQELKSELTEVPASRILKESPSGYLRSGEGDTGCGELVWVGEPLTLRTAETITGKYGVWMRDPKPTYPYTQETTWRIDTVGTDVRQVFEYDLISQFMQGYPSKVHILPRPLESTGAVVYSGSLYFQGAESRTVIRYELNTETVKAEKEIPGAGYHRQFPYSWGGYTDIDLAVDEAGLWVIYSTDEAKGAIVLSKLNPENLELEQTWETNIRKQSVANAFIICGTLYTVSSYTSADATVNFAYDTGTGISKTLTIPFKNRYKYSSMIDYNPLEKKLFAWDNLNMVTYDIKLSKM [G367R]?
Tm (CaCl2 1mM): 42.7 °C; change of melting temperature, mutant - wild type (higher = more stable) (CaCl2 1mM): -10.3 °C; Tm (CaCl2 10mM): 50.9 °C; change of melting temperature, mutant - wild type (higher = more stable) (CaCl2 10mM): -8.7 °C

Which results are given for MRFFCARCCSFGPEMPAVQLLLLACLVWDVGARTAQLRKANDQSGRCQYTFSVASPNESSCPEQSQAMSVIHNLQRDSSTQRLDLEATKARLSSLESLLHQLTLDQAARPQETQEGLQRELGTLRRERDQLETQTRELETAYSNLLRDKSVLEEEKKRLRQENENLARRLESSSQEVARLRRGQCPQTRDTARAVPPGSREVSTWNLDTLAFQELKSELTEVPASRILKESPSGYLRSGEGDTGCGELVWVGEPLTLRTAETITGKYGVWMRDPKPTYPYTQETTWRIDTVGTDVRQVFEYDLISQFMQGYPSKVHILPRPLESTGAVVYSGSLYFQGAESRTVIRYELNTETVKAEKEIPGAGYHGQFPYSWGGYTDIALAVDEAGLWVIYSTDEAKGAIVLSKLNPENLELEQTWETNIRKQSVANAFIICGTLYTVSSYTSADATVNFAYDTGTGISKTLTIPFKNRYKYSSMIDYNPLEKKLFAWDNLNMVTYDIKLSKM [D380A]?
Tm (CaCl2 1mM): 46.6 °C; change of melting temperature, mutant - wild type (higher = more stable) (CaCl2 1mM): -6.4 °C; Tm (CaCl2 10mM): 45.1 °C; change of melting temperature, mutant - wild type (higher = more stable) (CaCl2 10mM): -14.5 °C
